Results: patent US20080311122A1, “Antagonists of Hmgb1 and/or Rage and Methods of Use Thereof” (Medimmune, LLC, priority 2005, published 2008)
Entries after “also recorded” stand apart in the source; their conditions may differ.

How the values were obtained:
[1] = test system: heat inactivated S. aureus induced peritonitis; experiment: S. aureus mouse model of peritonitis; format: in vivo
Method: Induction of Peritonitis: Four-six week old female BALB/c mice were used. […] For determination of HMG1 levels on day 0 approximately 10^9 heat inactivated S. aureus (strain 8325-4) cells premixed with 20 mg of galactosamine or galactosamine alone in a 200 μl volume of PBS was administered i.p. A third group of animals was not challenged. Animals were euthanized at 2, 8, and 12 hours after challenge by CO2 inhalation and blood was collected by cardiac puncture. For the antibody treatment studies on day 0 approximately 10^9 heat inactivated S. aureus (strain 8325-4) cells premixed with 20 mg of galactosamine were administered i.p. in a 200 μl volume and the following treatments were administered i.p. in a 100 μl volume 30 minutes prior to challenge as shown in Table 7.
The animals were also weighed 2× weekly. Animals showing signs of significant morbidity were euthanized. On day 15 all surviving animals were euthanized (euthanized sooner if significant morbidity observed).

LPS-induced ALI = experiment: LPS induced acute lung injury (ALI) mouse model; format: in vivo; conditions: percent protection, isotype control subtracted
Method: Induction of LPS-induced ALI: LPS (E. coli strain 01111:B4. Sigma, St. Louis, Mo.) was administered intranasally to isoflurane (Baxter Pharmaceuticals, Deerfield, Ill.) anesthetized adult BALB/c mice on day 1 at a dose of 5-10 ug per mouse in 50-100 μl. For determination of HMG1 levels animals were euthanized by CO2 asphyxiation at 4, 8, 24, 32 and 48 hours post LPS administration, and BronchoAlvcolar Lavarge (BAL) and other samples collected for protein analysis and histopathology. For treatment protocols 24 hours post LPS dosing, anti-HMGB1 antibodies, HMG1 A-box Fc fusion or controls were administered intraperitoneally (i.p.) at a dose of 10 mg/kg in 100 ul volumes. On day 3 (48 h post LPS dosing), animals were euthanized by CO2 asphyxiation and samples (BALs, blood, and lungs) collected for analysis.
BAL Sample Collection: lungs were flushed three times with ˜0.8 ml Phosphate buffered saline (PBS, pH 7.2, GIBCO, Rockville, Md.) using a syringe with a catheter tubing. BAL samples collected were centrifuged at 1,200 rpm for 10 min at 4 C, supernatant collected and stored at −80 C for protein (e.g. HMGB1) quantitation, and cells in pellet were resuspended and transferred to cytoslides, fixed, GIEMSA stained, and BAL cellularity determined visually with the aid of a microscope.

[2] = test system: CpG2216+thymus HMG1 induced IFN-a release (TLR9 signaling); experiment: Inhibition of HMG1 mediated enhancement of TLR9 signaling, CpG2216 + thymus HMG1 in bone marrow cells; format: cell-based; conditions: mouse bone marrow cells
Method: HMGB1+TLR Ligand: Freshly isolated bone marrow cells were stimulated with TLR ligands (TLR3:PolyIC@5 μg/mL; TLR4:LPS@2.5 ng/mL; TLR5:flagellin@0.25 μg/mL; TLR7:polyU@4 μg/mL or R837@5 μg/mL; TLR9:CpG2216@1 μM) with or without presence of thymus HMGB1 (10 μg/mL) for 24 hr. Cytokines in the supernatant were measured by ELISA.
Inhibition of HMG1 Mediated Enhancement of TLR Signaling: Freshly isolated bone marrow cells were stimulated with TLR9 ligand CpG2216 (0.3 μM) and thymus HMGB1 (10 μg/mL) in the presence of different concentration of the anti-HMGB1 mAb E11 or control human IgG for 24 hr and IFN-a in the supernatant was measured by ELISA. CpG2216, HMGB1 and nonstimulatory DNA were used alone or in combination as controls for the assay.

[3] = test system: LPS+HMG1 induced TNF-a release (TLR4 signaling); experiment: Inhibition of HMG1 mediated enhancement of TLR4 signaling, LPS+HMG1 TNF-a release; format: cell-based, mouse
[4] = biological target: T1, native (thymus) HMG1 binding to RAGE/Fc (Bos taurus, UniProt P10103); experiment: Inhibition of native HMG1 binding to Rage-Fc (ELISA); parameters: species or system bovine; conditions: at the concentrations tested
T1 construct: from tissue; host or cells: bovine (calf) thymus
T1 sequence (P10103 2-215 limits assumed): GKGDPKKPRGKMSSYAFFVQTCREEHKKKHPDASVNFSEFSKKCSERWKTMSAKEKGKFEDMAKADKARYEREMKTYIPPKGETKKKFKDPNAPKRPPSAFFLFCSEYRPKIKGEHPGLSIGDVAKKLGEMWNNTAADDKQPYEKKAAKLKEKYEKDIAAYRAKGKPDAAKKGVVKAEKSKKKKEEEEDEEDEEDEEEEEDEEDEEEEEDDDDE
Method: Inhibition of Native HMG1 Binding to Rage-Fc: Recombinant RAGE/Fc was coated on ELISA plate at 5 μg/mL, 0.1 mL/well. HMGB1 (0.5 μg/mL) was pre-incubated with anti-HMGB1 mAb clone E-11 or G-4 at different concentrations for 0.5 hr. After blocking the plate, anti-HMGB1 mAb pre-incubated HMGB1 was added to RAGE/Fc coated plate for 2 hr. RAGE bound HMGB1 was detected with Biotin labeled anti-HMGB1 pAb.

B1: E11: human anti-HMG1 antibody, recognizes HMG1 A-Box; VL/VH aa SEQ ID NO: 24/26 (antibody, listed as Homo sapiens, V domains shown)
VH: EVQLLESGGGLVQPGGSLRLSCAASGFTFSRYQMNWVRQAPGKGLEWVSSISPSGGHTHYADSVKGRFTISRDNSKNTLYLQMNSLRAEDTAVYYCAKDGRQGKISTVDHWGQGTLVTVSS
VL: AQDIQMTQSPGTLSLSPGERATLSCRASQSVRSNFLAWYQQKPGQAPRLLIYGASRRASGIPDRFSGSGFGADFTLSISRLEPEDFAVYYCQQYGSSPNTFGQGSRVEIK
mice survived ([1]; lethal dose of heat inactivated S. aureus): 8% | in vivo S. aureus ([1]; percent protection, isotype control subtracted): 8% | in vivo ALI (LPS-induced ALI): 37% | inhibition of IFN-a release induced by CpG + thymus HMG1 [2]: could be blocked; also recorded: inhibited the release of INF-a induced by CpG2216+thymus HMG1 | inhibition of IFN-a release induced by CpG alone [2]: not blocked; also recorded: Neither E11, G4 or Rage/Fc inhibited | inhibition of TNF-a release induced by LPS+HMG1 [3]: inhibits the release of TNF-a induced by LPS+HMG1; also recorded: could be blocked; also recorded: inhibit the release of TNFa induced by LPS+HMG1 | inhibition of signaling by LPS alone [3]: inhibit signaling by LPS alone | block of native (thymus) HMG1 binding to RAGE [4]: significant ability to block the binding of native HMG1 to RAGE; also recorded: can block native HMG1 binding
